Test results taken from PMC2920065.
One block for each substance: values may come before it.

Experiments:
[1] = molecular target: GST fusion of the wild type DEP domain of RGS7 (R7-DEP) (bovine) (UniProt O46470); test: pull-down
[2] = molecular target: GST-DEP F107A/F110A double mutant (bovine) (UniProt O46470); test: pull-down

- increase of the fraction bound against wild-type Gβ5 [1]: 10%
Substance: Gβ5 D259A mutant in complex with the RGS7^249-469 construct (from UniProt O46470 249-469)

- fold reduction of binding against wild-type Gβ5 [1]: 5 fold
Substance: Gβ5 F284A mutant in complex with the RGS7^249-469 construct (from UniProt O46470 249-469)

- fold reduction of binding against wild-type Gβ5 [1]: 5 fold
Substance: Gβ5 I282A/I283A double mutant in complex with the RGS7^249-469 construct (from UniProt O46470 249-469)

- percent bound [2]: 12%
- percent bound [1]: > 50%
Substance: complex of wild-type Gβ5 with the RGS7^249-469 construct (from UniProt O46470 249-469)
